This note sets out measurements from a protein production outcome set (Wang et al. 2014).

The nature of this data set: label from the status in PepcDB records.
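Also: failed if final PepcDB status was selected cloned or expressed and not failed if soluble or beyond.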

Consider “MKHVRSHLPRVLLGLMISVSLVLAGCANNGTGSSMLGGSGTDPDPRLTKSTDSSFFSTSGLTACAAAAGVGILACAVASPSDKVKCMVVAGIAACGVAMGANYYYDYRRSKYSNTAQRLQLMNDDVKADTEKVAQRTYTLQQVINDDKERIAGIQKSIKTKTLDKAKAQQEIASVDSNLAQMNKDLTGMRSKVAEYKKTADLERASDGGTQVTAIDGEISKMNSKVASLQKEVDGLYSQRQAITLG”, for which the protein production result is on record as “failed”. Regarding “MKIAIAGAGAMGSRLGIMLHQGGNDVTLIDQWPAHIEAIRKNGLIADFNGEEVVANLPIFSPEEIDHQNEQVDLIIALTKAQQLDAMFKAIQPMITEKTYVLCLLNGLGHEDVLEKYVPKENILVGITMWTAGLEGPGRVKLLGDGEIELENIDPSGKKFALEVVDVFQKAGLNPSYSSNVRYSIWRKACVNGTLNGLCTILDCNIAEFGALPVSESLVKTLISEFAAVAEKEAIYLDQAEVYTHIVQTYDPNGIGLHYPSMYQDLIKNHRLTEIDYINGAVWRKGQKYNVATPFCAMLTQLVHGKEELLGAK”, the protein production entry is “not failed”. In the case of “MKIAIASGKGGTGKTTVAVNLALALEEVQLFDCDVEEPNCNLFLGFEMEPVEEVVFLVPEINPDKCTLCRGCSDFCRYNALAAIPNRILSFPSLCHGCGGCSFVCPAGAIEEKPETIGIIQKALSDSPLTFFCGTLKIGKATATPVIKSLQNHIDESRPAIIDSPPGTACPVLAVMGFADYCVLVTESTPFGFHDFCLALEAARALNVPVGVVLNRDGLGDSRVEDFCRAEGIPILLRIPNDRTIARLYSEGIPFVKEMPEWKKQFKDMFETIKTGLYESKGVQLEHHHHHH”, the protein production entry is given as “failed”. For “MKIAIFGTTLHAGVMAALLAERGNDVFWCADHDYKGLEEQIVCQTYQEQDVNRLLVKQRQLGFLKDCRFSSIPLDIEAYLFCFSPTELQFALEVTQLLNIRPIIHPRLMINGSTFGLHGTEKLKQNLPKDHWVYFPDMIQEGNAINSVLTVKHVIVGVESDYTKTIMHEMLRPFFRFNHQYLFMPILDAEFTKLSISGMLATRISYMNDMALVAEKLGIDIANVKEGMAADTRIGSAYLSAGVGFGGENFSHDILTLSNVVSDTGARSRLLEQVWEINEQQKEVLFRKLWNYYHCDLKDKVVAIWGAAFKENTSNIHNAPIHSMLTALWAQGAIVKLHDPQALEEIQARYGKRNDLILCTEQYEATRGAHALCVMTVWKQYLSPDYKKLQQLMAHPFILDGRNVYDPVYIKQQGFAYEGIGRL” the value was “failed”.

“MKIALINENSQASKNHIIYDSLKEATDKKGYQLFNYGMRGEEGESQLTYVQNGLMAAILLNTKAVDFVVTGCGTGVGAMLALNSFPGVVCGLAVDPTDAYLYSQINGGNALSIPYAKGFGWGAELTLKLMFERLFAEEMGGGYPRERVIPEQRNARILNEVKQITHNDLMTILKIIDQDFLKDTISGKYFQEYFFENCQDDEVAAYLKEVLAK”: the protein production entry is recorded as “not failed”. On to “MKIATIKTGLASLAMLPGLVMAAPAVADKADNAFMMICTALVLFMTIPGIALFYGGLIRGKNVLSMLTQVTVTFALVCILWVVYGYSLAFGEGNNFFGNINWLMLKNIELTAVMGSIYQYIHVAFQGSFACITVGLIVGALAERIRFSAVLIFVVVWLTLSYIPIAHMVWGGGLLASHGALDFAGGTVVHINAAIAGLVGAYLIGKRVGFGKEAFKPHNLPMVFTGTAILYIGWFGFNAGSAGTANEIAALAFVNTVVATAAAILGWIFGEWALRGKPSLLGACSGAIAGLVGVTPACGYIGVGGALIIGVVAGLAGLWGVTMLKRLLRVDDPCDVFGVHGVCGIVGCIMTGIFAASSLGGVGFAEGVTMGHQLLVQLESIAITIVWSGVVAFIGYKLADLTVGLRVPEEQEREGLDVNSHGENAYNA”, for which the protein production entry is “failed”. For “MKIAVLGTGTVGRTMAGALADLGHEVTIGTRDPKATLARAEPDAMGAPPFSQWLPEHPHVHLAAFADVAAGAELVVNATEGASSIAALTAAGAENLAGKILVDIANPLDFSHGMPPTLNPVNTDSLGEQIQRTFPEAKVVKTLNTMNASLMVDPGRAAGGDHSVFVSGNDAAAKAEVATLLKSLGHQDVIDLGDITTARGAEMLLPVWIRLWGALGTANFNFKIAR”, the protein production entry is recorded as “not failed”.

On to “MKIFVDGDGSPVKETVIEVAVEKALDVVIVTSVDHYSLKDYPENVSFVYVDKGADAADFKIVQLIKKGDLLITQDYGLASLVLPKGVLVLHQLGYQYTKENIDGLLEQRYFSGQIRRKGGRTKGPKPFTDQDRTTFKQALIELVKRSLLEHHHHHH”, for which the protein production result was “failed”. With “MKIGVDAGGTLIKIVQEKNGERTYSTRLTTEIEEVIQWLNQQDCNNINLTGGQAAMINEQLNCESRVFVEFDAAAKGLEILLEEQGHFLDDYIFTNVGTGTSLHFSNGKAQKRVGGIGTGGGMIQGLGYLLTGISNYKQLTDTAQNGNRDIIDLKVKHIYKDSEPPISGDLTAANFGNVLHHLDESFTDADKLASVIAVVGEVITTMSITVAREHNTKNVAYIGSSFHNNDLLKDVVKDYTVLRGCEPYYIEHGAFSGALGSIHLLEHHHHHH”, the protein production entry is recorded as “failed”. Turning to “MKIIFSASPANRAAAYALRQAVFVEERGISADVEFDVKDTDQCEYAVLYLQPDLPITTLRLEPQADHVMRFGRVCTRKAYRGHGWGRQLLTAAEEWATQRGFTHGEIHGELTAQRFYELCGYRVTAGPYDEDGAPVVIMHKQ”, the protein production result is “failed”. The value for “MKIIFSASPANRAAAYALRQAVFVEERGISADVEFDVKDTDQCEYAVLYLQPDLPITTLRLEPQADHVMRFGRVCTRKAYRGHGWGRQLLTAAEEWATQRGFTHGEIHGELTAQRFYELCGYRVTAGPYDEDGAPVVIMHKQLL” was “not failed”; that for “MKIIRNYLYNASYQVLILLTPLITVPYVARVLGPTGVGVYSYTNSIITYFVLIGTLGITVYGNQQIAFHRDDIIERSRTFWEIELLQAVNVGITFLGFGIFLILDHRYQLFMVFQSCQLLAGAFDVSWFFMGIEDFKKTVFRNTLVKIATLGAIFIFVRTQSDLGLYILILALSQLVGNFTLWPYLKTRLVRIKFKDLKIWHHYVPALMLFVPQAANLVYQQVNKTMLGNLDTVNSVAYFDYADKLIKTVLAVVTATGIVMLPHMANLHAKGKNETIKRYLYKSFEFVSMIALPLGFGIAGIATTLAPIYFGQDFSISGKLLIIEAPVILLIGWSNVIGQQYMMPTEQISKYTKSVIIGAIVNVILNVPLIMYLGAVGAPIATVAAELSVTLYQLFVVRKQIQINLLFSDFWKYLFSSTVMFIVVYGLNVSMPMSIINLIVQIVEGMIIYLGMLLVLQPKLVVEGKSLLLGKLHK” was “failed”; that for “MKIKHWDRWLASLKDDDYLKNIEAIKLYLAVMSIYEPDLLDEYMIDDDFHPMISRLKNVTLDVTSARFKELYITESKMNYARDELDGAMIISKTLTKSDIVGNVALPKAQVMSVLTRMNGVTDEGLDNGFEVQVHDIMEDDLYTVTLKRIDDMKYYFGTGWSTMKHSLDLVEGDVQKLYWDQFENKFIVLNFQHKTMGIMIPV” was “failed”.

For the sequence “MKIKILAVLAVVTVIVVSMFMREKREDPSSLVMMNVEALATGEGTSPAICVGTGSVVCPNDGSKVLYYR”, the protein production entry is “failed”.

With “MKILIDGDACPKAVLQICLKKGRQYGIPVWTVASFNHEIASDHHIVVGNAPQETDLKVVNLSEAGDIIVTQDIGLAAMVLGKGARALSPTGKEYRPESIANLLEERELKAKYRRSLEHHHHHH”, the protein production result is recorded as “not failed”.

Take “MKILLIGGSGNIGRAIAAELSGRHEIIAAGRHHGDVRVDIEDEQSIAAMYRQLPRLDAVAVATGGRNGHVGPLAEMNAERYRVGLDAKLMGQVNLVLRGLDKVADGGSFTLVGGAWQPQAIVPLLSNVYMANAALEGFVNAAAVELPRRLRINLVSPLLLAESEAEYGPLFRGVPLVEARQVARAYSLSIEGAQTGQTYRLGRLDLEHHHHHH”: the protein production result is on record as “not failed”. With “MKILTQSLPNSSAAYLQGYLRENTDSSVTYPTVIIVPGGSYTHIPERQAEDLALAWVARGYQAFFLRYSFISEKTPLLPNPVIELAQSVAAIHAHATTWHVDLRRLAVAGFSVGGHITALFNDWWSEADFNQQAHTTPEQLKVQAVILGYPVISPDLGFPTDAATLATWSTTPKKIAADQHVTAANAPTFIWVTANDPLVPVQNALAYAQASLTHGVDTELHVFHNGPHGLALANSVTAWKPGTDLPHVAHWLDLATEWLQDLKLEHHHHHH”, the protein production entry was “not failed”. The value for “MKILVVSGFLGAGKTTFIRTLAERTKKDFAVMENEYGAVNVDGDLLEQTNDLNIWELTEGCICCSMQNDFATSILTIANTVDPEYLIVEPTGVGMLSKIIENIQKIEYERITLLEPLTILDGTMYDRCMFEFSEICEDQIQSAGRILVSKMEYAAENERCSLKQKLIALNPEAEICVSHYTEQGDDWWASLLTSYLDKEIPMKEERELDLENLGLTEASLQSEQELILFLQGVVSGVFGDICRAKGYLPAGNGWLRFDVTDRTYSVTGIDTMPEAKAIFIGRQLKRNWLREVLQKELYVEVSKRAIRPMRKRSEVLEHHHHHH” was “failed”; that for “MKIMGFYSQVILPRLLDWSLSDPTLATYRQELLTDVTGEVLEIGFGTGLNLAYYPSHIHKITTVDVNPGMNTIAQKRIDDSGIKVQQLLLSGENLPMADNTFDSVVSTWTLCSIANVEQALQEVYRVLKPGGKFFFLEHGLSNKPNVQVWQNRLTPIQKVLADGCHLNRNIQQLVEQSFDHVELKRFTPENFPDLMAHFYKGCATKKSILEHHHHHH” was “not failed”; that for “MKIPIILTLMLFSLGFIFGFISINNLSKINDKDLSNYIPNIQFNFPSILTNNLKVIFLMLAGSITFGLSTFINLIFNGFNVGVLIGSISLTNEPLKLITALILPHGIFEISAMLISAVAGFKIPYKVTLYLLDKKEKPLTEEDIKDFLKLSLISIILIVIAAFIEVYITPKIATYLLT” was “failed”. For “MKIQCDVCEKAPATLICCADEAALCAKCDVEVHAANKLASKHQRLFLDSLSTKFPPCDICLEKAAFIFCVEDRALLCRDCDEATHAPNTRSANHQRFLATGIRVALSSTSCNQEVEKNHFDPSNQQSLSKPPTQQPAAPSPLWATDEFFSYSDLDCSNKKEQLDLGELDWLAEMGLFGDQPDQEALPVAEVPELSFSHLAHAHSYNRPMKSNVPNKKQRLEYRYDDEEEHFLVPDLG” the value was “not failed”.
